In patent WO2018007923A2 (dated 2018):
Blank lines part the entries; values can stand above or below the binder they belong to.

Tests used:
pH4.0-treated TTR [1] = biological target: T1, pH4.0-treated TTR (human, UniProt P02766 21-147); assay: summary of Table 4; ELISA on pH4-TTR
pH4.0-treated TTR [2] = biological target: T1, pH4.0-treated TTR; assay: ELISA, pH4-TTR captured by anti-His
[3] = biological target: TTR-V122I (fibrils and oligomeric aggregates) (UniProt P02766 21-147); assay: cell-based or functional assay
pH4.0-treated TTR [4] = biological target: T2, pH4.0-treated TTR (human, UniProt P02766 21-147); assay: summary of Table 4; ELISA on pH4-TTR; remark: listed apart in the source
pH4.0-treated TTR [5] = biological target: T2, pH4.0-treated TTR; assay: ELISA, pH4-TTR captured by anti-His; remark: listed apart in the source

Kd (pH4.0-treated TTR [1]): 14.5 nM | Kd (pH4.0-treated TTR [2]): 16 nM
B1: mouse monoclonal antibody 6C1 (antibody, V domains shown)
VH: EVQLVESGGGLVQPGGSLKLSCAASGFTFSNYYMSWVRQTPEKRLEWVAYISIDGNNIYHPDSVKGRFTISRDNAKNTLYLQMSSLKSEDTAMYYCARDSDYGYFDVWGTGTTVTVSS
VL: DVLMTQTPLSLPVSLGDQASISCRSSQSIVHSNGNTYLEWYLQKRGQSPKLLIYKVSKRFSGVPDRFSGSGSGTDFILKISRVEAEDLGVYYCFQGSHVPLTFGGGTKLELK
notes: also called m6C1; mis-TTR mAb 6C1

IC50 of inhibition of TTR-V122I fibrillation (ThT fluorescence) [3]: 28 µg/mL
B2: mouse monoclonal antibody 14G8 (antibody, V domains shown)
VH: EVKLVESGGGLVQPGGSLKLSCAASGFTFSSYTMSWVRQTPEKRLELVAEINNSGDTTYYPDTVKGRFTISRDNAKNTLYLQMSSLKSEDTAMYYCARHYYYGGGYGGWFFDVWGTGTTVTVSS
VL: DIVMTQAAPSVPVTPGESVSISCRSNKSLLHSNGNTYLYWFLQRPGQSPQLLIYRVSNLASGVPDRFSGSGSGTAFTLRISRVEAEDVGVYYCMQHLEYPLTFGAGTKLELKR

Kd (pH4.0-treated TTR [4]): 257 nM | Kd (pH4.0-treated TTR [5]): 282 nM
B3: mouse monoclonal antibody 9D5 (antibody, V domains shown)
VH: EVKLVESGGGLVQPGGSLKLSCAASGFTFSSYTMSWVRQTPEKRLELVAEISNSGDTTYYPDTVKGRFTFSRDNAKNTLYLQMSSLKSEDTAMYYCARHYYYGGGYGGWFFDVWGTGTTVTVSS
VL: DIVMTQAAPSVPVTPGESVSISCRSSKSLLHSNGNTYLYWFLQRPGQSPQLLIYRVSNLASGVPDRFSGSGSGTAFTLRISRVEAEDVGVYYCMQHLEYPLTFGAGTKLELK
